Assay results published in the supplement of paper PMC9876800.

Tested on: peptide library, one residue held at a place counted from the S/T acceptor
Assay: relative phosphorylation of the sub-library (ratio to the mean residue at this position); higher = residue favoured
Conditions: human
How it was run: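 Spots on streptavidin membranes were phosphorimaged and quantified by densitometry to measure phosphorylation of biotinylated degenerate peptide sub-libraries by purified recombinant kinases, human or orthologue constructs. The reactions ran in 384-well plates for 90 min under kinase-specific conditions, with peptides at 50 μM and 50 μM ATP spiked with γ-32P-ATP. Relative sub-library phosphorylation is the ratio to the mean residue at that position.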

MARK1, construct: Full length, sequence (Q9P0L2 whole entry, looked up): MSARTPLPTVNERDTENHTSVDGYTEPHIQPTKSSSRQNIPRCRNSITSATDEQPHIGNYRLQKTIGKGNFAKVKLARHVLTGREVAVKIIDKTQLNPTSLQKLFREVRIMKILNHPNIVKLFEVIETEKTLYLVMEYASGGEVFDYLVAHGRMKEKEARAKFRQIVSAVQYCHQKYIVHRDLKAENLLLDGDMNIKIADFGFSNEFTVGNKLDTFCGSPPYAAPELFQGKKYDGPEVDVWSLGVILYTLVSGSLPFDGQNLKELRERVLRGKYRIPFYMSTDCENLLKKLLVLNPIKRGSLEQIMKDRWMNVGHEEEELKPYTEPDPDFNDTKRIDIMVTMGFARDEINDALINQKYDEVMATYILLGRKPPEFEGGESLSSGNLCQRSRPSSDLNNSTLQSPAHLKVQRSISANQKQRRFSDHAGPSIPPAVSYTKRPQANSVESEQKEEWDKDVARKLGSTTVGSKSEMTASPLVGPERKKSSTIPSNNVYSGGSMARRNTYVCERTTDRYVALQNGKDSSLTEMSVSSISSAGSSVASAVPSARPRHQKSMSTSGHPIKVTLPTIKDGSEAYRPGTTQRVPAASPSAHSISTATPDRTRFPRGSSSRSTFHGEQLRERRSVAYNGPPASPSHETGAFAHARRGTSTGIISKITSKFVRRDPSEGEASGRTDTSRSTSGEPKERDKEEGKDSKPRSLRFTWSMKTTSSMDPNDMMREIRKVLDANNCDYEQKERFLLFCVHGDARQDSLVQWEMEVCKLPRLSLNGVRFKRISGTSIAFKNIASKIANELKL
NUAK2, construct: Full length, sequence (Q9H093 whole entry, looked up): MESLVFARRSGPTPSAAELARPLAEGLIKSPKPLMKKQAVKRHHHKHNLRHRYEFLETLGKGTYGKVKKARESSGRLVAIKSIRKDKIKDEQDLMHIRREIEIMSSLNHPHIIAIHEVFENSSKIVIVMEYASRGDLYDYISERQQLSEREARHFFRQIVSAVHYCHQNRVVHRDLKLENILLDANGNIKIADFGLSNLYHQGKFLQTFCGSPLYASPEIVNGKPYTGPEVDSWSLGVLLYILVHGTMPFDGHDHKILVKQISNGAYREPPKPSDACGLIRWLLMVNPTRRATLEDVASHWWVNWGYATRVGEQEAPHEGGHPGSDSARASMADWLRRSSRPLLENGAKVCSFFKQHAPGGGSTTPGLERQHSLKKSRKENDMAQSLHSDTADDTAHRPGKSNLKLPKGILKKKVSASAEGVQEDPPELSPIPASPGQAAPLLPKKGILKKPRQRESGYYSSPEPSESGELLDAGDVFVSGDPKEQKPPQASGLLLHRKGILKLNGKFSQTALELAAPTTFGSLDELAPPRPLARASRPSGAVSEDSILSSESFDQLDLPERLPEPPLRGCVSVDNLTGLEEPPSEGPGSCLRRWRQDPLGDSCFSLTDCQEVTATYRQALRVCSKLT
PHKG2, construct: aa6-293, sequence (P15735 6-293, looked up): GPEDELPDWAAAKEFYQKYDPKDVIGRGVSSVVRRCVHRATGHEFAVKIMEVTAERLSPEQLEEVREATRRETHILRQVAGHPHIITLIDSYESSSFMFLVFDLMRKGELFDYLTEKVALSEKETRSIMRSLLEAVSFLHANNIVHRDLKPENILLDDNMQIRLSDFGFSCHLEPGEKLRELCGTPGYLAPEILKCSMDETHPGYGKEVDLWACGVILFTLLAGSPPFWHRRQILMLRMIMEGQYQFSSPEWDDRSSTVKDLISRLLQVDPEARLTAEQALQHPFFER
PAK5, construct: aa425-end, sequence (Q9P286 425-719, looked up): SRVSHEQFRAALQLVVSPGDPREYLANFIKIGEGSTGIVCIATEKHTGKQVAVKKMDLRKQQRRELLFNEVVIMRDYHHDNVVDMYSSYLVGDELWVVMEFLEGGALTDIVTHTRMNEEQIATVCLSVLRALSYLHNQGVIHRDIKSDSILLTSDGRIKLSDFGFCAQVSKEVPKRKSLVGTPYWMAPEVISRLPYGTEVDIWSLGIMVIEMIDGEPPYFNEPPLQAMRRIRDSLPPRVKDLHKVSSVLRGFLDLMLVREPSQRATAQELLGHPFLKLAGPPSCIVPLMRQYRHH

MARK1, construct: Full length (from UniProt Q9P0L2)
relative phosphorylation
Conditions | at +1 | at +2 | at +3 | at +4 | at -1 | at -2 | at -3 | at -4 | at -5
A fixed | 0.647 | 0.684 | 0.599 | 0.352 | 1.02 | 1.84 | 0.723 | 0.974 | 0.972
D fixed | 0.508 | 0.722 | 3.18 | 0.56 | 0.625 | 0.335 | 0.358 | 0.782 | 0.715
E fixed | 0.778 | 1.09 | 0.947 | 0.373 | 0.616 | 0.261 | 0.408 | 0.696 | 0.695
F fixed | 0.81 | 0.764 | 0.898 | 0.713 | 0.635 | 1.48 | 0.885 | 1.05 | 1.18
G fixed | 0.497 | 0.392 | 0.379 | 0.421 | 2.38 | 0.96 | 0.556 | 1.07 | 0.906
H fixed | 0.787 | 1.08 | 1.44 | 0.589 | 0.783 | 1.35 | 1.36 | 1.25 | 0.858
I fixed | 1.2 | 0.885 | 0.565 | 2.73 | 0.557 | 0.503 | 0.555 | 0.654 | 0.974
K fixed | 0.837 | 0.57 | 0.587 | 0.483 | 1.72 | 0.994 | 2.18 | 1.38 | 1.26
L fixed | 1.42 | 1.13 | 0.877 | 4.86 | 0.751 | 0.491 | 0.642 | 0.747 | 1.51
M fixed | 2.28 | 1.12 | 0.774 | 1.4 | 0.963 | 0.76 | 0.883 | 0.967 | 1.27
N fixed | 0.949 | 0.968 | 2.63 | 0.679 | 1.1 | 0.576 | 0.571 | 0.865 | 0.739
P fixed | 0.28 | 0.59 | 0.171 | 0.382 | 1.13 | 0.428 | 0.716 | 0.856 | 0.775
Q fixed | 1.76 | 1.04 | 0.911 | 0.615 | 1.16 | 0.569 | 0.7 | 0.805 | 0.862
R fixed | 1.14 | 0.69 | 0.476 | 0.384 | 1.41 | 1.08 | 3.66 | 1.75 | 1.48
V fixed | 1.36 | 0.879 | 0.487 | 1.28 | 0.75 | 0.676 | 0.525 | 0.798 | 0.903
W fixed | 0.847 | 3.44 | 1.03 | 0.626 | 0.636 | 3.1 | 1.39 | 1.26 | 1.02
Y fixed | 0.903 | 0.958 | 1.05 | 0.555 | 0.766 | 1.6 | 0.884 | 1.09 | 0.877
pThr fixed | 1.58 | 1.08 | 0.457 | 0.348 | 0.378 | 0.43 | 0.445 | 0.692 | 0.614
pTyr fixed | 0.712 | 0.641 | 0.828 | 0.368 | 0.881 | 0.508 | 0.543 | 0.659 | 0.758

NUAK2, construct: Full length (from UniProt Q9H093)
relative phosphorylation
Conditions | at +1 | at +2 | at +3 | at +4 | at -1 | at -2 | at -3 | at -4 | at -5
A fixed | 0.911 | 0.916 | 0.886 | 0.691 | 1.22 | 1.89 | 0.724 | 1.15 | 0.804
D fixed | 0.559 | 0.547 | 1.29 | 0.509 | 0.855 | 0.865 | 0.378 | 0.554 | 0.385
E fixed | 0.598 | 0.535 | 0.635 | 0.498 | 0.549 | 0.503 | 0.514 | 0.867 | 0.435
F fixed | 1.71 | 0.654 | 1.16 | 0.862 | 0.705 | 0.722 | 0.461 | 0.764 | 1.07
G fixed | 1.18 | 1.14 | 0.712 | 0.702 | 1.42 | 0.979 | 0.725 | 0.862 | 0.603
H fixed | 0.898 | 1.35 | 1.61 | 0.907 | 0.911 | 0.659 | 1.01 | 0.912 | 0.605
I fixed | 0.691 | 0.99 | 0.713 | 2.05 | 0.45 | 0.761 | 0.452 | 1 | 2.27
K fixed | 1.08 | 1.66 | 1.26 | 1.32 | 1.44 | 0.975 | 2.61 | 1.59 | 1.3
L fixed | 0.739 | 0.839 | 0.705 | 1.87 | 0.84 | 0.528 | 0.541 | 0.858 | 1.73
M fixed | 1.24 | 0.909 | 0.828 | 1.55 | 1.07 | 0.83 | 0.73 | 1.37 | 1.02
N fixed | 1 | 1.07 | 1.44 | 0.74 | 1.26 | 2.66 | 0.566 | 0.628 | 0.435
P fixed | 0.896 | 0.727 | 0.529 | 0.679 | 1.42 | 0.602 | 0.88 | 0.86 | 0.735
Q fixed | 1.16 | 0.745 | 0.766 | 0.624 | 1.09 | 1.23 | 0.739 | 0.954 | 0.613
R fixed | 1.51 | 2.48 | 1.69 | 1.1 | 1.65 | 1.23 | 5.28 | 1.8 | 1.66
V fixed | 0.763 | 0.927 | 0.614 | 1.07 | 0.581 | 1.26 | 0.443 | 1.13 | 1.74
W fixed | 0.868 | 0.717 | 1.07 | 0.931 | 0.557 | 0.598 | 0.471 | 0.837 | 0.687
Y fixed | 1.19 | 0.785 | 1.09 | 0.896 | 0.962 | 0.709 | 0.474 | 0.856 | 0.894
pThr fixed | 1.13 | 1.29 | 0.495 | 0.708 | 0.389 | 0.808 | 0.725 | 0.919 | 0.653
pTyr fixed | 0.814 | 0.59 | 0.71 | 0.605 | 1.03 | 0.477 | 0.531 | 0.602 | 0.76

PAK5, construct: aa425-end (from UniProt Q9P286)
relative phosphorylation
Conditions | at +1 | at +2 | at +3 | at +4 | at -1 | at -2 | at -3 | at -4 | at -5
A fixed | 0.523 | 3.81 | 0.935 | 0.868 | 0.794 | 0.298 | 0.638 | 1.06 | 1.07
D fixed | 0.142 | 0.456 | 0.657 | 0.741 | 0.332 | 0.0993 | 0.253 | 0.673 | 0.561
E fixed | 0.161 | 0.217 | 0.94 | 0.704 | 0.254 | 0.0919 | 0.269 | 0.731 | 0.544
F fixed | 1.37 | 0.928 | 1.42 | 0.877 | 1.06 | 0.519 | 0.574 | 0.881 | 0.948
G fixed | 0.353 | 0.908 | 1.17 | 1.34 | 0.645 | 0.224 | 0.814 | 1.22 | 1.14
H fixed | 0.93 | 0.94 | 1.08 | 0.987 | 1.36 | 1.1 | 1.02 | 1.16 | 1.18
I fixed | 1.82 | 0.958 | 0.944 | 0.834 | 0.538 | 0.325 | 0.439 | 0.591 | 0.78
K fixed | 0.715 | 0.343 | 0.634 | 0.97 | 1.72 | 0.815 | 3.3 | 1.53 | 1.74
L fixed | 1.48 | 0.79 | 1.19 | 0.826 | 1.22 | 0.27 | 0.432 | 0.804 | 0.794
M fixed | 1.83 | 0.681 | 1.07 | 0.876 | 1.28 | 0.347 | 0.557 | 0.932 | 0.835
N fixed | 0.402 | 0.924 | 0.702 | 1.01 | 0.942 | 0.26 | 0.744 | 0.959 | 0.986
P fixed | 0.18 | 0.846 | 1.08 | 1.74 | 0.278 | 0.576 | 0.567 | 0.867 | 0.899
Q fixed | 0.672 | 0.742 | 0.842 | 0.977 | 0.991 | 0.455 | 0.895 | 1 | 0.836
R fixed | 0.911 | 0.444 | 0.861 | 1.33 | 2.54 | 9.1 | 4.48 | 1.98 | 1.79
V fixed | 1.55 | 1.87 | 0.962 | 0.798 | 0.531 | 0.333 | 0.376 | 0.586 | 0.791
W fixed | 2.21 | 1.02 | 1.32 | 1.21 | 1.14 | 0.428 | 0.898 | 1.08 | 1.12
Y fixed | 1.74 | 1.12 | 1.21 | 0.917 | 1.38 | 1.76 | 0.745 | 0.935 | 0.987
pThr fixed | 0.367 | 0.442 | 0.647 | 0.925 | 0.214 | 0.201 | 0.373 | 0.693 | 0.735
pTyr fixed | 0.581 | 0.527 | 0.956 | 0.732 | 0.268 | 0.216 | 0.45 | 0.731 | 0.729

PHKG2, construct: aa6-293 (from UniProt P15735)
relative phosphorylation
Conditions | at +1 | at +2 | at +3 | at +4 | at -1 | at -2 | at -3 | at -4 | at -5
A fixed | 0.436 | 0.632 | 0.881 | 0.674 | 0.927 | 0.973 | 0.741 | 0.731 | 0.93
D fixed | 0.155 | 0.214 | 0.222 | 0.297 | 0.609 | 0.353 | 0.242 | 0.326 | 0.364
E fixed | 0.198 | 0.157 | 0.301 | 0.246 | 0.389 | 0.466 | 0.3 | 0.561 | 0.38
F fixed | 2.96 | 1.28 | 1.04 | 1.21 | 1.07 | 0.891 | 0.368 | 0.797 | 1.1
G fixed | 0.369 | 0.579 | 0.828 | 0.774 | 0.977 | 0.985 | 0.578 | 0.833 | 0.768
H fixed | 0.681 | 1.43 | 1.12 | 0.916 | 0.871 | 0.867 | 0.899 | 1.15 | 0.999
I fixed | 1.63 | 0.694 | 0.929 | 0.743 | 0.772 | 0.711 | 0.562 | 1.19 | 1.16
K fixed | 0.664 | 2.43 | 1.79 | 1.95 | 1.84 | 1.5 | 3.76 | 1.84 | 1.73
L fixed | 1.72 | 0.642 | 0.976 | 1.06 | 0.888 | 0.853 | 0.454 | 0.991 | 1.26
M fixed | 1.77 | 0.757 | 0.974 | 0.885 | 0.987 | 1.12 | 0.576 | 1.13 | 0.958
N fixed | 0.403 | 0.694 | 0.792 | 0.753 | 1.15 | 1.13 | 0.538 | 0.849 | 0.761
P fixed | 0.107 | 0.267 | 0.616 | 0.556 | 1.11 | 0.528 | 0.422 | 0.587 | 0.706
Q fixed | 0.593 | 0.601 | 0.851 | 1.02 | 0.917 | 1.72 | 0.77 | 0.878 | 0.776
R fixed | 0.997 | 3.32 | 2.61 | 2.71 | 1.84 | 2.48 | 5.1 | 1.98 | 1.85
V fixed | 0.896 | 0.574 | 0.856 | 0.719 | 0.9 | 0.778 | 0.477 | 0.922 | 1.15
W fixed | 2.03 | 1.56 | 1.2 | 1.48 | 0.751 | 0.861 | 0.556 | 0.996 | 0.926
Y fixed | 1.4 | 1.16 | 1.01 | 1.01 | 0.998 | 0.795 | 0.663 | 1.23 | 1.19
pThr fixed | 0.353 | 0.302 | 0.378 | 0.285 | 0.558 | 0.0668 | 0.449 | 0.505 | 0.678
pTyr fixed | 0.404 | 0.369 | 0.462 | 0.307 | 0.755 | 0.637 | 0.517 | 0.746 | 0.63
